Measurements: US11708423B2, “Chimeric engulfment receptor molecules and methods of use” (CERO THERAPEUTICS, INC., priority 2017, dated 2023)

B1: CER117: Tim4 binding and transmembrane domains, TLR8 primary and TRAF6 secondary signaling domains; SEQ ID NO:144 (protein)
chain: MSKGLLLLWLVTELWWLYLTPAASEDTIIGFLGQPVTLPCHYLSWSQSRNSMCWGKGSCPNSKCNAELLRTDGTRIISRKSTKYTLLGKVQFGEVSLTISNTNRGDSGVYCCRIEVPGWFNDVKKNVRLELRRATTTKKPTTTTRPTTTPYVTTTTPELLPTTVMTTSVLPTTTPPQTLATTAFSTAVTTCPSTTPGSFSQETTKGSAFTTESETLPASNHSQRSMMTISTDIAVLRPTGSNPGILPSTSQLTTQKTTLTTSESLQKTTKSHQINSRQTILIIACCVGFVLMVLLFLAFLHHLFYWDVWFIYNVCLAKVKGYRSLSTSQTFYDAYISYDTKDASVTDWVINELRYHLEESRDKNVLLCLEERDWDPGLAIIDNLMQSINQSKKTVFVLTKKYAKSWNFKTAFYLALQRLMDENMDVIIFILLEPVLQHSQYLRLRQRICKSSILQWPDNPKAEGLFWQTLRNVVLTENDSRYNNMYVDSIKQYMSLLNCENSCGSSQSESDCCVAMASSCSAVTKDDSVGGTASTGNLSSSFMEEIQGYDVEFDPPLESKYECPICLMALREAVQTPCGHRFCKACIIKSIRDAGHKCPVDNEILLENQLFPDNFAKREILSLMVKCPNEGCLHKMELRHLEDHQAHCEFALMDCPQCQRPFQKFHINIHILKDCPRRQVSCDNCAASMAFEDKEIHDQNCPLANVICEYCNTILIREQMPNHYDLDCPTAPIPCTFSTFGCHEKMQRNHLARHLQENTQSHMRMLA
modifications: CER117 protein
B2: CER31−HPV16 E7 TCR: tandem expression cassette: CER31, T2A peptide, HPV16 E7 specific TCR; SEQ ID NO:170 (protein)
chain: MSKGLLLLWLVTELWWLYLTPAASEDTIIGFLGQPVTLPCHYLSWSQSRNSMCWGKGSCPNSKCNAELLRTDGTRIISRKSTKYTLLGKVQFGEVSLTISNTNRGDSGVYCCRIEVPGWFNDVKKNVRLELRRATTTKKPTTTTRPTTTPYVTTTTPELLPTTVMTTSVLPTTTPPQTLATTAFSTAVTTCPSTTPGSFSQETTKGSAFTTESETLPASNHSQRSMMTISTDIAVLRPTGSNPGILPSTSQLTTQKTTLTTSESLQKTTKSHQINSRQTILIIACCVGFVLMVLLFLAFLMESSKKMDSPGALQTNPPLKLHTDRSAGTPVFVPEQGGYKEKFVKTVEDKYKCEKCHLVLCSPKQTECGHRFCESCMAALLSSSSPKCTACQESIVKDKVFKDNCCKREILALQIYCRNESRGCAEQLMLGHLLVHLKNDCHFEELPCVRPDCKEKVLRKDLRDHVEKACKYREATCSHCKSQVPMIALQKHEDTDCPCVVVSCPHKCSVQTLLRSELSAHLSECVNAPSTCSFKRYGCVFQGTNQQIKAHEASSAVQHVNLLKEWSNSLEKKVLEGGGEGRGSLLTCGDVEENPGPMAPGLLCWALLCLLGAGLVDAGVTQSPTHLIKTRGQQVTLRCSPKSGHDTVSWYQQALGQGPQFIFQYYEEEERQRGNFPDRFSGHQFPNYSSELNVNALLLGDSALYLCASSLGWRGGRYNEQFFGPGTRLTVLEDLRNVTPPKVSLFEPSKAEIANKQKATLVCLARGFFPDHVELSWWVNGKEVHSGVCTDPQAYKESNYSYCLSSRLRVSATFWHNPRNHFRCQVQFHGLSEEDKWPEGSPKPVTQNISAEAWGRADCGITSASYQQGVLSATILYEILLGKATLYAVLVSTLVVMAMVKRKNSRAKRSGSGATNFSLLKQAGDVEENPGPMWGVFLLYVSMKMGGTTGQNIDQPTEMTATEGAIVQINCTYQTSGFNGLFWYQQHAGEAPTFLSYNVLDGLEEKGRFSSFLSRSKGYSYLLLKELQMKDSASYLCASVDGNNRLAFGKGNQVVVIPNIQNPEPAVYQLKDPRSQDSTLCLFTDFDSQINVPKTMESGTFITDKCVLDMKAMDSKSNGAIAWSNQTSFTCQDIFKETNATYPSSDVPCDATLTEKSFETDMNLNFQNLLVIVLRILLLKVAGFNLLMTLRLWSS
modifications: CER31_T2A_HPV16_E7_TCR tandem cassette

Columns and labels:
ALK+A549 cells = experiment: Phagocytosis of ALK inhibitor treated A549 ALK+ cells by CER T cells (fluorescent microscopy); format: cell-based; settings: 12 hours, CD4 T cells
Excerpt: An ELM4-ALK translocation was introduced into A549 cells. […] CD4 T cells are modified to express CER104 or CER117 and labeled with CELLTRACE Violet. CER117 has a polypeptide sequence set forth in SEQ ID NO:144 and comprises a Tim4 binding domain, a Tim4 transmembrane domain, and an engulfment signaling domain comprising a primary engulfment signaling domain comprising a TLR8 signaling domain and a secondary engulfment signaling domain comprising a TRAF6 signaling domain. The ALK+A549 cells were then co-cultured with CER104- or CER117-expressing CD4+ T cells or Mock-transduced (vector only) T cells for 12 hours and images were obtained by fluorescent microscopy at 40× magnification (FIGS. 62A-E). White arrows indicate exemplary phagocytic events (pH rodo red cell targets within CELLTRACE Violet labeled CD4+ T cells).
CER123- and CER126-transduced CD4+ and CD8+ T cells were labeled with CELLTRACE Violet and co-cultured with the A549 ALK-positive cells. Co-cultured cells were imaged by fluorescent microscopy at 63× magnification after 12 hours (FIGS. 63A-F). White arrows indicate exemplary phagocytic events (pHrodo red targets within CELLTRACE Violet-labeled CD4 T cells).
Phagocytosis of Alectinib-treated ALK+A549 cells by CER-expressing T cells was also quantified. […] Bar graph in FIG. 64A represents quantification of percentage phagocytosis calculated as ((number of phagocytic target events)/(total number of effector cells))*100. Events were calculated from fluorescent 3×3 stitched images at 40×resolution after 12 hours of co-culture. Bar graph in FIG. 64B represents quantification of adjusted phagocytic index calculated as (median area ratio of target events in effector cells*phagocytosis). Events calculated from fluorescent 3×3 stitched images at 40×resolution after 12 hours of co-culture.
CER21−, CER27−, CER30−, CER108−, CER110−, CER112−, CER120−, CER123−, CER124−, CER126−, CER127−, or CER104-transduced CD4+ T cells were co-cultured with Alectinib-treated A549 cells at a 1:1 ratio for 12 hours. Phagocytic events were calculated from 3×3 stitched fluorescent microscopy images at 40X resolution. […] Images were obtained after 12 hours of co-culture. Yellow triangles indicate exemplary phagocytic events (pHrodo red targets within CELLTRACE violet labeled CD4+ T cells).
A time course study of phagocytic uptake of tumor cells by CER-transduced T cells was performed. CD4+ T cells were transduced with a lentiviral vector comprising CER122 nucleic acid. Mock-transduced (vector only) CD4+ T cells were used as control. CER122-transduced T cells were labeled with CELLTRACE violet and co-cultured with pHrodo red labeled A549 ALK+ lung adenocarcinoma cells. Fluorescent microscopy images were obtained at 4, 8, and 16 hours co-culture (FIG. 72C), and % phagocytosis (FIG. 72A) and phagocytic index (FIG. 72B) were calculated.

SCC152 cells [1] = experiment: Magnitude breadth of phagocytosis by CER-transduced CD4+ T cells; format: cell-based, human; settings: 8 hours co-culture with CD8/E7 TCR T cells and SCC152 cells
Method: Various CER-modified CD4+ T cells were also evaluated for breadth of response to determine whether a particular CER confers a broad phagocytic response of low magnitude (e.g., 10% engulfment in 90% of cells) or a less frequent but strong phagocytic response (e.g., 90% engulfment in 10% of cells) in the host cells. CD8+ T cells were transduced with HPV16 E7 specific TCR as described in Example 5. CD4+ T cells were transduced with lentiviral vectors comprising a CER21, CER27, CER104, CER116, or CER117 nucleic acid. Mock-transduced (vector alone) CD4+ T cell were used as control. CD4+/CER+ and CD8+/E7 TCR+ T cells were stained with CELLTRACE violet. […] HPV16 E7 TCR transduced CD8+ T cells and selected CER transduced CD4+ T cells were mixed at a 1:1 ratio and co-cultured with SCC152 cells at a 1:1 ratio for 8 hours. Phagocytosis of target SCC152 cells by CER-transduced CD4+ T cells was analyzed by fluorescence microscopy. […] The horizontal axis represents the % area of CER-transduced CD4+ T cells having engulfment or % area of […]. This measure was rarely above 40% across CER types tested. The vertical axis represents the proportion of CER-transduced CD4+ T cells that were phagocytic. For CER104, about 20% of CER104-transduced CD4+ T cells have more than 10% engulfment. For CER117-transduced CD4+ T cells, less than 10% have more than 10% engulfment.

[2] = system: CER-transduced CD4+ T cells; experiment: Mass cytometry (CyTOF) with viSNE marker analysis of CER-transduced CD4+ T cells; format: cell-based, human; settings: CD4+ T cells after co-culture with E7 TCR CD8+ T cells and SCC152 cells
Excerpt: CD4+ T cells were transduced with lentiviral vector comprising CER104, CER116, or CER117 nucleic acid. CER104 (SEQ ID NO:133) comprises a Tim4 binding domain, Tim4 transmembrane domain, and an engulfment signaling domain comprising a primary engulfment signaling domain comprising a TLR8 signaling domain and a secondary engulfment signaling domain comprising a DAP12 signaling domain. CER116 (SEQ ID NO:143) comprises a Tim4 binding domain, Tim4 transmembrane domain, and an engulfment signaling domain comprising a primary engulfment signaling domain comprising a TRAF6 signaling domain and a secondary engulfment signaling domain comprising a TLR8 signaling domain. CER117 (SEQ ID NO:144) comprises a Tim4 binding domain, Tim4 transmembrane domain, and an engulfment signaling domain comprising a primary engulfment signaling domain comprising a TLR8 signaling domain and a secondary engulfment signaling domain comprising a TRAF6 signaling domain. CER-transduced CD4+ T cells were co-cultured with E7 TCR-transduced CD8+ T cells and HPV+SCC152 target cells and interrogated by mass cytometry (CyTOF) with viSNE for visualization of high dimensional single cell data (FIGS. 82-84). Intact CER-transduced CD4+ T cells are shown in plots displaying tSNE1 (horizontal) and tSNE2 (vertical) axes. 27 intracellular markers were used for the viSNE analysis. Each dot represents a single cell. […] Red represents high expression and blue represents low expression for each marker. Populations of CD4^+ T cells were generated using a clustering algorithm from all 27 markers and overlaid onto the viSNE map. […] Populations of CD4^+ T cells were generated using a clustering algorithm from all 18 markers and overlaid onto the viSNE map (FIG. 83A). […] Color plots by 18 intracellular markers (CD28, CCR7, CD45RA, PD1, CD127, Perforin, CD49d, CD85j, CD38, CD27, Granzyme B, CD57, CD25, CD69, CD154, CD56, HLA-DR, and TCRγδ) show the phenotype across viSNE ‘islands’ (FIG. 83B). Red represents high expression and blue represents low expression for each marker. Highlighted region with arrow indicates cells expressing T cell activation marker CD69. Populations of CD4^+ T cells were generated using a clustering algorithm from 18 intracellular markers (CD28, CCR7, CD45RA, PD1, CD127, Perforin, CD49d, CD85j, CD38, CD27, Granzyme B, CD57, CD25, CD69, CD154, CD56, HLA-DR, and TCRγ6) and overlaid onto the viSNE map. […] Color plots by the 18 intracellular markers show the phenotype across viSNE ‘islands’ (FIG. 84B). Red represents high expression and blue represents low expression for each marker. Highlighted region with arrow indicates cells expressing the naïve T cell marker CD45RA.

SCC152 cells [3] = experiment: Phagocytic activity of tandem expression cassette transduced CD8+ T cells; format: cell-based, human
Method: Phagocytic activity of tandem expression cassette transduced CD8+ T cells was detected by co-culturing tandem expression cassette transduced CD8+ T cells with SCC152 cells for 6 hours at a 1:1 ratio. Phagocytic events were visualized and quantified using KEYENCE BZ-X710 fluorescence microscope, 20X objective and hybrid capture software.

| Molecule | phagocytosis of A549 cells (ALK+A549 cells; 1 μM Alectinib) | phagocytosis of A549 cells (ALK+A549 cells; 1 μM Crizotinib) | proportion of CER-transduced CD4+ T cells that have more than 10% engulfment (SCC152 cells [1]) | viSNE islands expressing intracellular marker IFNγ [2] | phagocytosis of SCC152 cells (SCC152 cells [3]; CD8+ T cells, 6 hours, 1:1 ratio) | dependence of engulfment of SCC152 cells on Racl (SCC152 cells [3]; Racl inhibitor NSC23766 (50 μM), data not shown) |
| --- | --- | --- | --- | --- | --- | --- |
| B1 | phagocytosed A549 cells | phagocytosed A549 cells | less than 10% | enrichment of islands expressing the intracellular marker IFNγ |  |  |
| B2 |  |  |  |  | capable of phagocytosing SCC152 cells | Racl-dependent manner |
